We go through 18 sequences from a protein production outcome set (Wang et al. 2014).

The data set can be described thus: label from the status in PepcDB records.
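Note: failed if final PepcDB status was selected cloned or expressed and not failed if soluble or beyond.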

Regarding “MKTRLLPVAPSAGTLPGLPDAAELAVLRAWHAGLSAREAVERYLGERRAPGQSSRGILGRIRRQLAAFARRRQREDLALLFEIAATERARQGRVADQAVELLRTLPLPEPAISDDVALWLDARAVTVLRAAGIDTLADLTVRVPRRRRWWAAIPGLGQAGARRIEAFFAEHPRLTERAKALIAEQPRGVVVPWEQLRLPHEVDGSEGQFRAPRETSVLTADNDYEAVQAWLSLHESPATQRAYRKEAERLILWAIIERGRPLSSLTTEDAIAYRGFLRRPSPHERWVGPARPRASADWRPFTDGLSARSIAYSLSVLGAMFRWLIQQRYVLANPFAGIKVRGGGRTAALDASHAFSEGEWALVRTLADGLEWSYGWEAAAAQRLRFVLDFAYATGLRASELITARLGGIETDRQSDHWLSLIGKGGRAGKVALPPLARTALDRYLVERGLPVTQARWNPQTPLIGALGLDPGGGITGSRLWSVMRRFFRVAADLIERDHTALAEKLRKASPHWMRHTHASHALARGAELTTVRDNLRHASISTTSIYLHGDDVKRARQIEAAFAAK”, the protein production entry was “failed”. Then “MKTSQEELLPATRRALLHRIAVAQAEGRAPSLAAAVVRGGQTVWYGSRTSVDGHAPDENVQYRIGSITKTFTAVLVLRLRDEGVLDLGDPLEKHLPGTGAGEATIAELLAHTGGLAAESPAPWWERTPGSLRPELADVLGELPLRHPVGRRHHYSNPGYTLLGALVEELRGAPWEEVLRREVLEPLGMRRTSGDPRAPHAGGWAVHPWADVMLPEPAEDLGRMAPAGQLWSTTGDLARFAVFLAQGDERVLSADSVREMRTPAAPAEAADVMSGSAYGLGMQLQYRDGRLLVGHSGSLPGFLANLTVSVEDDLAAVVLVNCTSGPMPSAVAADLVRIVAEAEPRIPEPWRPLPDVDEGVLELAGQWYWGTQAFVLRLTVDGGVSLEPLSGVGRRARLRANGDGTWTGLDGYYAGELLKAVRRPDGSVSHLDLGSFVFTRQPYDEGAPVPGGVDPEGWRGIP”, with “failed”. Then “MKTSVKFETIFPLTTAPLIQCITNEITCESMANALLYIDAKPIMADDPREFPQMFQQTSALVLNLGHLSQEREQSLLAASDYARQVNKLTVVDLVGYGASDIRNEVGEKLVHNQPTVVKGNLSEMRTFCQLVSHGRGVDGSPLDQSEEAIEELIQALRQQTQKFPQTVFLATGIQDVLVSQEQVIVLQNGVPELDCFTGTGDLVGALVAALLGEGNAPMTAAVAAVSYFNLCGEKAKTKSQGLADFRQNTLNQLSLLMKEKDWFEAVKGRVL”, with “not failed”; and “MKTTIQTITLILGLFISSLAIASPEFPTQEPMGGKTFGHSVKHVGNGIYVFRWWVYRNFFVVTDDGVIVSDPLNPKAAKLLQSEIRKITDKPVKYVVYSHNHHDHISGGNIFKAEGAKFIGHKNLLKQLKDHPSPVLPIPDIVFEDTYTLTLGNRTLELSYFGPNHGDSLVVMRFPKEKILFVVDIVTPRRVAFRGMPDFWPDEWVRSLKEIELMDVDYVISAHGPENQPAIDPASVIKEQRVYIEDLMAAVKLKMDEGVHSPDALRKQVKLPKYEHWQYYEQWLPMNIERIWAYYHMGW”, with “failed”; and “MKTTLLKTLTPELHLVQHNDIPVPSLKTCGWNTKNFPCKGHSLSVGXPQNAKQDVLWLSEVEPFKNGNAIRGGVPICYPWFGGVKQPAHGTARIRLWQLSHYYISVHKVRLEFELFSDLNIIEAKVSMVFTDKCHLTFTHYGEESAQAALHTYFNIGDINQVEVQGLPETCFNSLNQQQENVPSPRHISENVDCIYSAENMQNQILDKSFNRTIALHHHNASQFVLWNPWHKKTSGMSETGYQKMLCLETARIHHLLEFGESLSVEISLKG”, with “not failed”.

As for “MKTTPDILDQIRVHGADAYPEEGCGFLLGTVTDDGDNRVAALHRATNRRSEQRTRRYELTADDYRAADAAAQEQGLDVVGVYHSHPDHPARPSATDLEEATFPGFTYVIVSVRDGAPEALTAWALAPDRSEFHREDIVRPDPEAPLEHHHHHH”, the protein production result is “failed”. Then “MKTWFKYIKLLLLSVCTFLLVTGCNSNVSKLPSNQTTSNITTNCRVINHEAGKTQICGQPKKVVALSPPVLDMMLALGVQPAGYAEVDLLNSKVFDRPKEQIPYLGDRITSQPMNVGDRGNPSLESLLQLKPDLILGEASYNETEYQILNKIAPTILISHRDGITPAWQQTISIIAQALGREDKVPTVIAEYEQKLSQAKTAIAPIAQHQELLLLAFRGITLTSFTFGAETFAGGLLQDLGFKLVSPESTEYEVALEVLPKFKSDLIVIMPSGNNNIENAKRQWSQNPILQSISAHNTNRIYFIDYQLASRIRGPIAAELFVNQVRQLLS”, with “failed”; and “MKVDVDEKTYIITMANDITKLYEENKRNLHYSITDPLTGAYNRKYLNDRFDIFIGDYIVLIDLDNFKMINDYEGHNVGDKILCDFVSLLNKELINSTSIIRLGGDEFIVIFSSDVDKNYVYSQLEALRENFLKVFSKYKYLSFSYGVDTVKRNLKLTIVELDKKMYKNKEKLEHHHHHH”, with “failed”; and “MKVELTAIEARVIGCLIEKEVTTPDQYPLSLNALTNASNQKSNREPVMALSESDVLDAVDALIERRLVSDESAFNSRVSKYQHRFCNTEFGDLKLSEQEKGIICCMLLRGAQTPGEIRTRTNRLATFHDVKEVEAVLEHLASEEKGPLVVKLPREAGKRESRYMHLFCGEVDVSAMAAAVPATSSSSVRIAQLEQEVAELREELDALKAQVESLLS”, with “not failed”. For the sequence “MKVERRTIEYIPNEERHGKAKDLFPVWFGANMHITTLVTGTIPVAMGLNLFWSVAAIICGTLIGAIFMASHSAQGPQLGIPQMIQSRAQFGVIGAILPLFLVMFIYLGFFASSTILAAGTLSSFVPIPGSWSIIGLSAVCFLLTIFGHDLIHKMQKILSWTSFAVFFAATILIFQLPIPAGSWIPGAIDLPIFLVAVSAVATWQLAYAPYVADYSRYLPVKTPASKTFWYSYAGTSVSSIWMMLLGALLTTSLPDFTANSGSQIVQLFGPFSFIMLIIVLFGQMAINVFNLYGAFMSTTTTLEPFLKLKVTPKVRIIMILGVTLVGTVLSLLGQSNFMELFLNFIFFISYFLIPWTAINLVDYYFVRHGKYQVKAMFDVNGPYGKVNWITTIAFVLSILLEIPFINTSFYIGPLAKMFGGGDIAWIIGLAVPSVLYYVLMKPRLKKRAGYQEKLSSL”, the protein production result is “failed”. Consider “MKVIICGAGQVGYGIAEQLSREDNEVSVIDTAAPLITAITETLDVRGYVGHGAHPDMLAKAGADQADMIIAVTLHDEINIVACEVAHALFSVPTKIARIRDQSYMKPEYADLFSRENMSIDVTISPEVEVGKMVLRRIAFPGATDVVRFAEDTIYMLAIECMEDCPVINTPLQQLSSLFPDLIATVVGVYRDGILKVAHSSEQLRVGDLAYVICQRQHARRTLSLFGHEEQEAQRIVIAGAGNIGHFVAHKIEEMQSKTRVKIIEADRDRAIAASEQLSHTIVMHGSALDQKILMQADIQDADLIVTLTNNDQTNILAAVIAKQLGCKSNLALLNSTSFHDVARSLGLDAYINPRAVTISRVLQHVRKGRIRSVYAVQRGSAEVIEAEALETSPLVGQSFRDIDMPDGVRIGAIYRDGVVIRPDGSTKIKAKDRVVLFASADAVRDVEQLFRVSIQYF”, for which the protein production result is “failed”.

For the sequence “MKVILVNGSPHKDGCTFTALEEVAKALNEEGIDTEFFHLGTKPLNGCIACGHCRKHQRCVFPDSVNEFLDLAQEADGFIFGSPVHYAAAGGAITSFLDRVFYTDSGSGKQAFYLKPAAAVVSARRAGTTASLDQLNRYFTIKEMPIISSKYWNMVHGNTPEEVRKDEEGLQIMRTLGRNMAWFLKCKEAGIRAGIPFPSQEEGLRTNFIRLEHHHHHH”, the protein production entry is reported as “not failed”. Then “MKVKDVCKLISLKPTVVEEDTPIEEIVDRILEDPVTRTVYVARDNKLVGMIPVMHLLKVSGFHFFGFIPKEELIRSSMKRLIAKNASEIMLDPVYVHMDTPLEEALKLMIDNNIQEMPVVDEKGEIVGDLNSLEILLALWKGREK”, with “not failed”; and “MKVKIYTRNGCPYCVWAKQWFEENNIAFDETIIDDYAQRSKFYDEMNQSGKVIFPISTVPQIFIDDEHIGGFTELKANADKILNKK”, with “not failed”; and “MKVKLFAIHLFFIVISFGIKYYHLQGPNLIWNMTLALIALDFAYLTSLFKKKILIGLFALAWFFFYPNTFYMLTDIIHMHFVGDVLYNKTNLILYILYVSSILFGFLSGIESFSVIMRKFRISNIFLRWGIIGIVSLVSSFGIHIGRYARLNSWDILTKPQVVINELLAVPSRDSFHFILGFTFLQVLCLIFMDYSAGKKLEK”, with “failed”. Next, “MKVLFIHPFGSNWLGTGTDITTIFNLMPPLGLLSIAAFLEARGIGTEVIDCYATPMPAETLVAEVIRRRPDVVGFSCTTSSFLEGYSIAERIKEKAPGITTVFGGAHACSVGVGLLDTFPAIDYLVIGEGEQTFFELVTNLDHGGSGIPGVGYRENGKGVISALREHIANLDDLPFPAYHRLPQFPKRYILPLFSYPKAPNTSIISSRGCPYQCSYCDRSVFSRGFRFNSPEYIVEHLKMLNRDYGIRHVFFYDDLFTTDRARVARFCELKERERLPVTYNCIARLEHVDAELLRLLKRSGCWQVNFGIESGDPEVIKKHRKFYGLDEVQRKLQLVRDTGMRVKGLFMVGLPGETEESIRRTIDYALALPLDEINVTKFTPFPGAPLYATIREQGEFDENWPLMNCLNFVFVPHGMTREQLEGLYNEFISRFYRRSRIHWGYTKMLWKSPHSVATFLRHLPEILAFELKQKW”: “failed”; “MKVLITDFDLFAKVGGGQTFYRSLIRKNPDIDFYYLIDKEARVTERPDNAHGVPFQEKYFLADLNNFFDVNPPKWVYRSFIRASNIATSVAGMEFDLIDSPDYEQWAIFLRPALDYHRVKFAKIALSLHGKISTTLKLDWFNQGKENIPLELEEWKQYATVDLRYGISKSYIDEWQSLSRFSAHYYHPLHFFELPQPLEAIASGDRPDLNFVGRTEKRKGPDIFIDIAWWLNRNLYHEANIIGPHSFNDTGTISSETYLRSMLGDRQSPVKFLPPKPQQELMGLFARKTVTFVPSRYDTLNLVALESLFSGCPTVVGGGAGVCRLLKEDFPDVPFVEIDLDNIYSCLPAIENILSDYNNYRRRLVDSVKNSTAIADSPILADIYQQTGQYEEEIRDELQSWYGQLMGYWVSTQENVSFLQPLKAQLKPTLKQIKNNLKSTAGQLKGKILQPLADDRNAQLVKAPNLLKKYKEAFNATEQTAKDLAEKIQMGWRLGSGYESEFQGVRGKLATNYRIDRVRLWRELARIEELRGNTLVSATYKVRALRALGSDQFGDLPFVLRTLTEYGFPKEMAAVSALYGQPSEREERCLSLIEQARLDNLANPAGDEYEIWDDRRGDGPYRASIIVSLYNAAAKLPLFLKTLQHQTLIKRGEAEVVLVDSGSPGNEYEVFKDLAPTLGYPLLYARSPQRETIQSAWNRGIKLAKSPYLAFLGVDETILPDCLEILAGELDQDPELDWAIGHSLVTNVDMQGGWVSDIMPYDRTGYEQDLVYLETCYLSWVGALYRKSIHERFGYYDQSFRGAGDTEFKNRVMPFIKSKVVDKMLGLFWNYPDERTTQSPATEIEDMRAWYLHRTLAGVKYAFQRRSPREVENLLYHCLGYRKSYCKHTSTDFDHAHNLVTYLEKVDPNAEALKYAPGIEALLGTYRSLDWLPKLSKFSPLNSMLTARKLTKQWEQEHQQSWPEDRLFSPHYSIFNDNRHEQHSFLWFTDITASKK”: “failed”; “MKVLLIIPAYNEEENILRTIASIETFKQEVTHFQHELDYVVINDGSTDGTKQILEANQINAIHLVLNLGIGGAVQTGYKYALENEYDVAVQFDGDGQHDINSLPILLEPLAEGKCDFSIGSRFIPGNEASFQSTKMRRFGIRLLSFCIRMASGKTIYDVTSGYRAGNRKVIAFFAKRYPTNYPEPESIVHLIKKRFVIVERPVNMMERLGGVSSIRALASVKYMLEVGSAILIAAFMKEGDLEHHHHHH”: “not failed”.
